Measurements taken from US20020001840A1.

Biological target: purified αvβ3 integrin (UniProt P06756)
Assay: cell-based or functional assay

purified αvβ3 integrin, sequence (P06756 31-1048, form in doubt, chain 1 of 2): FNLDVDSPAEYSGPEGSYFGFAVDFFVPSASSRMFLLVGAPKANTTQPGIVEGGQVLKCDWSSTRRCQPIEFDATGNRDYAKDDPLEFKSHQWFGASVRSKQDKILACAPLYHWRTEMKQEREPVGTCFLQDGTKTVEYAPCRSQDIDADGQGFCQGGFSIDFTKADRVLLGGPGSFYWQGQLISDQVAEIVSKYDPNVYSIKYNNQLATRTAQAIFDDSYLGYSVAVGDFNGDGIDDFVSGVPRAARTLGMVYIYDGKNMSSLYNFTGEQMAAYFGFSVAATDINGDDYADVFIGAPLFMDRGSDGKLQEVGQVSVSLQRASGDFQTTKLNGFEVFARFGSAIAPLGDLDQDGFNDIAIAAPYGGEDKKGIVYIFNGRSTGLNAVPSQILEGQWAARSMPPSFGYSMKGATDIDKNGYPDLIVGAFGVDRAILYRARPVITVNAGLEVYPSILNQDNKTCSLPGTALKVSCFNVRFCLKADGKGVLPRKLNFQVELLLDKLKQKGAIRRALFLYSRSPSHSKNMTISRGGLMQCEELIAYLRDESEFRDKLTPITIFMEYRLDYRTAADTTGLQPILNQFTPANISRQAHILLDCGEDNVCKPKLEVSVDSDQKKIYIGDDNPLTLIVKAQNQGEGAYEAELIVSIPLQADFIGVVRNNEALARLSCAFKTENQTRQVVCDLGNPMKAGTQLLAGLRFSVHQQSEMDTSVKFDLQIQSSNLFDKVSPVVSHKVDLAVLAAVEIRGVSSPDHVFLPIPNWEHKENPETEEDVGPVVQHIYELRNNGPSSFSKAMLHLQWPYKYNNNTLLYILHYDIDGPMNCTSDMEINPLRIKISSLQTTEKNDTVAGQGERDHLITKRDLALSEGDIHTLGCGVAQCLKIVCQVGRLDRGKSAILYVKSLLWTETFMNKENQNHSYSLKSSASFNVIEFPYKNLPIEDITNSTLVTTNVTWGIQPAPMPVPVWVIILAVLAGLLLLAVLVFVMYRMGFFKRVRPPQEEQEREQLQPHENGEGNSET
purified αvβ3 integrin, sequence (P05106 27-788, form in doubt, chain 2 of 2, further chain): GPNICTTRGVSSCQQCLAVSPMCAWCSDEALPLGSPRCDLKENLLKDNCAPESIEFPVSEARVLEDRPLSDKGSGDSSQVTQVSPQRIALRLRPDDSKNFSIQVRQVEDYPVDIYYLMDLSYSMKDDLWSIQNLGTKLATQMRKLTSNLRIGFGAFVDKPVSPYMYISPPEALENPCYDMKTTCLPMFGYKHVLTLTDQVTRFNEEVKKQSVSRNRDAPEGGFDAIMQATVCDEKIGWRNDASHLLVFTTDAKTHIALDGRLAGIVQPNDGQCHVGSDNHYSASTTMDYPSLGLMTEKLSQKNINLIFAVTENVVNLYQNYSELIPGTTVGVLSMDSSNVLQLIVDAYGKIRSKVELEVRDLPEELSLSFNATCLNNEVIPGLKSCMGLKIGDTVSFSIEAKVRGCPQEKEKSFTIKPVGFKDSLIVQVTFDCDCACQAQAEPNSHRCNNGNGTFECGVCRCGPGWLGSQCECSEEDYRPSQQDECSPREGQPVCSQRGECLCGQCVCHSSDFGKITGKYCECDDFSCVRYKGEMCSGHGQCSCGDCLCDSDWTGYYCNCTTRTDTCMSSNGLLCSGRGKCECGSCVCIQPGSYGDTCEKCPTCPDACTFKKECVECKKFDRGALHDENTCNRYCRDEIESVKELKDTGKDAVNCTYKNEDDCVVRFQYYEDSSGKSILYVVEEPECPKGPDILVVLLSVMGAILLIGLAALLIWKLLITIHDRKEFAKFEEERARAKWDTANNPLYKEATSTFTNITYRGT

cell adhesion promoting effect, SH-Sy5y neuroblastoma cells: 40%
Substance: mutADAM 23 disintegrin-like domain (E466A) expressed as a fusion protein with GST (from UniProt O75077 498-588)
